Reference: article PMC3547847, “A Newly Uncovered Group of Distantly Related Lysine Methyltransferases Preferentially Interact with Molecular Chaperones to Regulate Their Activity” (PLoS Genetics, 2013)

Assays:
Experiment in all cases: pull-down; 500 ng GST-tagged METTL21D with 100 ng His-tagged protein and Glutathione Sepharose 4B beads, 1 hour at 4°C, 50 mM NaCl, 50 mM HEPES-KOH pH 7.6, 0.1% NP-40, 0.5% charcoal-stripped FBS; bound His-tagged proteins detected by anti-6X His Western blot; AdoMet or AdoHcy present in Figure 6E; VCP and ASPSCR1 also added together (more binding)
Conditions in all cases: both partners purified
[1] = target: T1, C-terminal fragment of ASPSCR1 (residues 280–553) (human, UniProt Q9BZE9 280-553)
T1 construct: ASPSCR1/UBXD9, human, residues 280-553; also called C-terminal half of ASPSCR1; source: E. coli One Shot BL21 Star (DE3), purified (Ni-NTA Agarose)
T1 sequence (looked up): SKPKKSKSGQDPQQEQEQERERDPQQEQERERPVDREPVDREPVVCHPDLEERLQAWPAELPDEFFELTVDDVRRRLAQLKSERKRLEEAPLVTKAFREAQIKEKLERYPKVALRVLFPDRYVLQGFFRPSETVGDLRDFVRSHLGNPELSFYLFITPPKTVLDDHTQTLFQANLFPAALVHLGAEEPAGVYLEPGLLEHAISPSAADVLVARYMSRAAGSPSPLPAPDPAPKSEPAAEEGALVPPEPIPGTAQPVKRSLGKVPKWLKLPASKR

[2] = target: T2, VCP-His R159G (human, UniProt P55072 1-806, R159G)
T2 construct: VCP/p97, human, with the ALS-linked substitution R159G; also called VCP mutant R159G; source: E. coli One Shot BL21 Star (DE3), purified (Ni-NTA Agarose)
T2 sequence (P55072 whole entry R159G): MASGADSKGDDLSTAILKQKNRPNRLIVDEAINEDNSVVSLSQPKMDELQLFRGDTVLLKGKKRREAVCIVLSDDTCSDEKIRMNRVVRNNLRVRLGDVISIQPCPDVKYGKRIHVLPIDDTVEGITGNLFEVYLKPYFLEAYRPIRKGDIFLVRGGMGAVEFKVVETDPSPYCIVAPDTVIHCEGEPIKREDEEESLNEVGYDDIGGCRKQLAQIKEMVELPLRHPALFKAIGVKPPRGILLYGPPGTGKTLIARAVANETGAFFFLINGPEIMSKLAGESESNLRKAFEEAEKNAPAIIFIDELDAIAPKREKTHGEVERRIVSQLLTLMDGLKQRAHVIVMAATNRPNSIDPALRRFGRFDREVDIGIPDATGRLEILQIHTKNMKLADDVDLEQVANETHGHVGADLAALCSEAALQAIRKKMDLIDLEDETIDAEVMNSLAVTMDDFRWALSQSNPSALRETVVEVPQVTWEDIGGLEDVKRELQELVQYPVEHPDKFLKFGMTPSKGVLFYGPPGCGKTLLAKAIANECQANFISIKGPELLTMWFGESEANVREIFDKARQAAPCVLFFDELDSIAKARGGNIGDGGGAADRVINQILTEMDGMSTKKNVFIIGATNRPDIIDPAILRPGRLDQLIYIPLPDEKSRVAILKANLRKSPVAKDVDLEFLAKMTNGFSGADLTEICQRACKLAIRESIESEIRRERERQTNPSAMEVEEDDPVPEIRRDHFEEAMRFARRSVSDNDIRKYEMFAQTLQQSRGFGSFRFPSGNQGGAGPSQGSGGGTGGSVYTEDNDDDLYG

[3] = target: T3, ASPSCR1-His (human, UniProt Q9BZE9 1-553)
T3 construct: ASPSCR1/UBXD9, human; also called full-length ASPSCR1; His-tagged ASPSCR1; source: E. coli One Shot BL21 Star (DE3), purified (Ni-NTA Agarose)
T3 sequence (looked up): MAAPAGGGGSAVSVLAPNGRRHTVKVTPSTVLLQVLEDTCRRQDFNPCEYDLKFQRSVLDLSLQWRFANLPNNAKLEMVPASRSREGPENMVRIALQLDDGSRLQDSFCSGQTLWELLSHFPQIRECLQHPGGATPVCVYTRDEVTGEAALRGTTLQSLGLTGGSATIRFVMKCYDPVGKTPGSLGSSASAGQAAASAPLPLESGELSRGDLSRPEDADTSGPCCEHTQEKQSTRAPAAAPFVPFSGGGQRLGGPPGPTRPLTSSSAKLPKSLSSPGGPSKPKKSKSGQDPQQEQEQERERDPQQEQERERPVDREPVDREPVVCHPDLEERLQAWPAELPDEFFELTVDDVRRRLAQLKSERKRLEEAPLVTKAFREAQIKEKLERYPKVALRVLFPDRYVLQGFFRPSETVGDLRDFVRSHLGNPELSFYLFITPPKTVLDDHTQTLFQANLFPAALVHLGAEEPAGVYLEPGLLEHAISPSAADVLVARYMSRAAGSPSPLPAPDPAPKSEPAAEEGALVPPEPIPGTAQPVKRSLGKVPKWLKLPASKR

[4] = target: T4, VCP-His R155H (human, UniProt P55072 1-806, R155H)
T4 construct: VCP/p97, human, with the IBMPFD- and ALS-linked substitution R155H; also called VCP mutant R155H; source: E. coli One Shot BL21 Star (DE3), purified (Ni-NTA Agarose)
T4 sequence (P55072 whole entry R155H): as the sequence (P55072 whole entry R159G) above, with R155H, G159R counted along it

[5] = target: T5, VCP-His R191Q (human, UniProt P55072 1-806, R191Q)
T5 construct: VCP/p97, human, with the IBMPFD- and ALS-linked substitution R191Q; also called VCP mutant R191Q; source: E. coli One Shot BL21 Star (DE3), purified (Ni-NTA Agarose)
T5 sequence (P55072 whole entry R191Q): as the sequence (P55072 whole entry R159G) above, with G159R, R191Q counted along it

[6] = target: T6, VCP-His (human, UniProt P55072 1-806)
T6 construct: VCP/p97, human; also called His-tagged VCP; wild-type VCP-His; source: E. coli One Shot BL21 Star (DE3), purified (Ni-NTA Agarose)
T6 sequence (P55072 whole entry): as the sequence (P55072 whole entry R159G) above, with G159R counted along it

- binding result [1]: binds
- binding result [2]: binds
- binding result [3]: binds
- binding result [4]: binds
- binding result [5]: binds
- binding result [6]: binds
B1: GST-METTL21D (enzyme, human, UniProt Q9H867 1-229, looked up)
chain: MADTLESSLEDPLRSFVRVLEKRDGTVLRLQQYSSGGVGCVVWDAAIVLSKYLETPEFSGDGAHALSRRSVLELGSGTGAVGLMAATLGADVVVTDLEELQDLLKMNINMNKHLVTGSVQAKVLKWGEEIEGFPSPPDFILMADCIYYEESLEPLLKTLKDISGFETCIICCYEQRTMGKNPEIEKKYFELLQLDFDFEKIPLEKHDEEYRSEDIHIIYIRKKKSKFPS
notes: METTL21D, human; also called GST-tagged METTL21D; wild type METTL21D; source: E. coli One Shot BL21 Star (DE3), purified (Glutathione Sepharose 4B)
